Reference: patent US12139520B2 (priority 2020, dated 2024)
Numbered stars: 1 amine (or outer) side, 2 acyl side, 3 side chain; on linkers, the order of the positions; unused ones are H or OH. Bridge positions count the residues as written; N and C are the ends. Square brackets hold non-standard residues; d marks the D form. Ends that are not written are not given here. * marks the point of attachment. C20 diacid = O=C(O)CCCCCCCCCCCCCCCCCCC(=O)*; γGlu = O=C(O)[C@H](CCC(=O)[*:2])N[*:1]; Hyp = O=C(O)[C@@H]1C[C@@H](O)CN1; Cit = NC(=O)NCCC[C@H](N)C(=O)O

T1: hAMY3R (human, UniProt P30988)
T1 sequence 1: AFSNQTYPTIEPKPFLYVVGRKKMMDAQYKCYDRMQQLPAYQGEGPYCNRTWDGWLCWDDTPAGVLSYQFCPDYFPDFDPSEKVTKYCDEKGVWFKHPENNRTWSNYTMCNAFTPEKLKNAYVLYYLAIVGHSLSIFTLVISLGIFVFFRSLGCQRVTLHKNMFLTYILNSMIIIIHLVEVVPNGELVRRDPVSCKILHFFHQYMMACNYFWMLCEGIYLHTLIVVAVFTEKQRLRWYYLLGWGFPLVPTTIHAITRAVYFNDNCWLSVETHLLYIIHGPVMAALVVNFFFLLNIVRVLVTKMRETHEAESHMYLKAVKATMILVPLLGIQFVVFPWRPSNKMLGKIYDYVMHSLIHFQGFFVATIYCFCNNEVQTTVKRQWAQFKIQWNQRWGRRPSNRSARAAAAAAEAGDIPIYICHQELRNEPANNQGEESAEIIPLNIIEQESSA
T1 sequence 2: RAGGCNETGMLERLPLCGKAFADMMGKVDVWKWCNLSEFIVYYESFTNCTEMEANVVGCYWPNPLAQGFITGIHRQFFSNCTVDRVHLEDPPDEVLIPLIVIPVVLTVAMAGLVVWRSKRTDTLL


target: T1, hAMY3R; experiment: cell-based or functional assay

Binder	hAMY3R EC50 (cAMP) [nM]
GCRFGTCTVQWLAHQIYQFTDKDKDNVAPRTKISPQG[Hyp]-NH2 (disulfide 2-7 (inferred); ends not checked) [SEQ ID NO: 350]	0.044
RCQASTCTVA[Cit]LAEQIAQYTDKDKDQVAPPTEVGPNS[Hyp]-NH2 (disulfide 2-7 (inferred); ends not checked) [SEQ ID NO: 33]	0.008
GCRTGTCTVQWLAHQIYQFTDKDKDNVAPRSKVGPNG[Hyp]-NH2 (disulfide 2-7 (inferred); ends not checked) [SEQ ID NO: 347]	0.068
GCRFGTCTVQWLAHQIYQFTDKDKDNVAPRTNIGPNG[Hyp]-NH2 (disulfide 2-7 (inferred); ends not checked) [SEQ ID NO: 331]	0.006
GCRFGTCTVQWLAHQIYQFTDKDKDNVAPRTKISPNG[Hyp]-NH2 (disulfide 2-7 (inferred); ends not checked) [SEQ ID NO: 337]	0.019
KCNTATCTVQWLAHQIYQFTDKDKDNVAAPTNVGSNG[Hyp]-NH2 (disulfide 2-7 (inferred); ends not checked) [SEQ ID NO: 325]	0.025
{C20 diacid-γGlu}-KCNTATCTVDRLAHQIYQFTDKDKDNVAPPTNVGSNG[Hyp]-NH2 (disulfide 2-7 (inferred); ends not checked) [SEQ ID NO: 4]	0.006
GCRTGTCTVQWLAHQIYQFTDKDKDNVAPRTKVGPQG[Hyp]-NH2 (disulfide 2-7 (inferred); ends not checked) [SEQ ID NO: 349]	0.046
KCNTATCTVQWLAHQIYQFTDADKDNVAPPTNVGSNG[Hyp]-NH2 (disulfide 2-7 (inferred); ends not checked) [SEQ ID NO: 328]	0.01
{C20 diacid-γGlu}-KCNTATCTVQRLAHQIQQFTDKDKDNVAPPTNVGSNG[Hyp]-NH2 (disulfide 2-7 (inferred); ends not checked) [SEQ ID NO: 35]	0.009
GCRTGTCTVQWLAHQIYQFTDKDKDNVAPRTKIGPNG[Hyp]-NH2 (disulfide 2-7 (inferred); ends not checked) [SEQ ID NO: 339]	0.047
GCRFGTCTVQWLAHQIYQFTDKDKDNVAPRTKVGPQG[Hyp]-NH2 (disulfide 2-7 (inferred); ends not checked) [SEQ ID NO: 322]	0.014
GCRTGTCTVQWLAHQIYQFTDKDKDNVAPRTNVGPQG[Hyp]-NH2 (disulfide 2-7 (inferred); ends not checked) [SEQ ID NO: 323]	0.014
GCRFGTCTVQWLAHFLYQFTDKDKDNVAPRTNVGPQGY [SEQ ID NO: 326]	0.053
GCRFGTCTVQWLAHFLYQFTDKDKDNVAPRTNVGSNTY [SEQ ID NO: 327]	0.09
GCRTGTCTVQWLAHQIYQFTDKDKDNVAPRTNVGPQGY [SEQ ID NO: 335]	0.015
GCRFGTCTVQWLAHQIYQFTDKDKDNVAPRTNVSPQGY [SEQ ID NO: 340]	0.022
GCRTGTCTVQWLAHQIYQFTDKDKDNVAPRSNVGPQGY [SEQ ID NO: 346]	0.085

target: hAM1R (human, UniProt Q16602); experiment: cell-based or functional assay

Binder	hAM1R EC50 (cAMP) [nM]
GCRFGTCTVQWLAHQIYQFTDKDKDNVAPRTKISPQG[Hyp]-NH2 (disulfide 2-7 (inferred); ends not checked) [SEQ ID NO: 350]	1180
RCQASTCTVA[Cit]LAEQIAQYTDKDKDQVAPPTEVGPNS[Hyp]-NH2 (disulfide 2-7 (inferred); ends not checked) [SEQ ID NO: 33]	> 5000
GCRTGTCTVQWLAHQIYQFTDKDKDNVAPRSKVGPNG[Hyp]-NH2 (disulfide 2-7 (inferred); ends not checked) [SEQ ID NO: 347]	> 5000
GCRFGTCTVQWLAHQIYQFTDKDKDNVAPRTNIGPNG[Hyp]-NH2 (disulfide 2-7 (inferred); ends not checked) [SEQ ID NO: 331]	3570
GCRFGTCTVQWLAHQIYQFTDKDKDNVAPRTKISPNG[Hyp]-NH2 (disulfide 2-7 (inferred); ends not checked) [SEQ ID NO: 337]	1580
KCNTATCTVQWLAHQIYQFTDKDKDNVAAPTNVGSNG[Hyp]-NH2 (disulfide 2-7 (inferred); ends not checked) [SEQ ID NO: 325]	> 5000
{C20 diacid-γGlu}-KCNTATCTVDRLAHQIYQFTDKDKDNVAPPTNVGSNG[Hyp]-NH2 (disulfide 2-7 (inferred); ends not checked) [SEQ ID NO: 4]	> 5000
GCRTGTCTVQWLAHQIYQFTDKDKDNVAPRTKVGPQG[Hyp]-NH2 (disulfide 2-7 (inferred); ends not checked) [SEQ ID NO: 349]	> 5000
KCNTATCTVQWLAHQIYQFTDADKDNVAPPTNVGSNG[Hyp]-NH2 (disulfide 2-7 (inferred); ends not checked) [SEQ ID NO: 328]	> 5000
{C20 diacid-γGlu}-KCNTATCTVQRLAHQIQQFTDKDKDNVAPPTNVGSNG[Hyp]-NH2 (disulfide 2-7 (inferred); ends not checked) [SEQ ID NO: 35]	> 5000
GCRTGTCTVQWLAHQIYQFTDKDKDNVAPRTKIGPNG[Hyp]-NH2 (disulfide 2-7 (inferred); ends not checked) [SEQ ID NO: 339]	> 5000
GCRFGTCTVQWLAHQIYQFTDKDKDNVAPRTKVGPQG[Hyp]-NH2 (disulfide 2-7 (inferred); ends not checked) [SEQ ID NO: 322]	1390
GCRTGTCTVQWLAHQIYQFTDKDKDNVAPRTNVGPQG[Hyp]-NH2 (disulfide 2-7 (inferred); ends not checked) [SEQ ID NO: 323]	> 5000
GCRFGTCTVQWLAHFLYQFTDKDKDNVAPRTNVGPQGY [SEQ ID NO: 326]	> 5000
GCRFGTCTVQWLAHFLYQFTDKDKDNVAPRTNVGSNTY [SEQ ID NO: 327]	> 5000
GCRTGTCTVQWLAHQIYQFTDKDKDNVAPRTNVGPQGY [SEQ ID NO: 335]	> 5000
GCRFGTCTVQWLAHQIYQFTDKDKDNVAPRTNVSPQGY [SEQ ID NO: 340]	671
GCRTGTCTVQWLAHQIYQFTDKDKDNVAPRSNVGPQGY [SEQ ID NO: 346]	> 5000
